experiment: soluble on expression in E. coli; label from the status in PepcDB or PDB records

Sequence	soluble on expression in E. coli
MSLLEWDLSALFHDKEALQNFTQDQIQQSLNFKKNYENKLYTLNANEFLQALKDYENLNQALGKIMTYAYLLFAKNTQNGSFYAQYEEECKKIEENLLFFELEFCELAPEKSREFTTFCKDYDFYLSNLLQNKRYNLSKNEERIMLYLSNTGANAFSRLFDESMSALKIPFEGKKLSEEEILSKMYDENRKIRKKAAKKFSKVLQKNSRLLSFIINMIKTERKNISLLRGYENAEISRHISNQISQKSVDSLIASAQKHFNLVSQFYKRKKQILGYDELKDYDRYAPIGKEASFDFKTSKNIVLEAFQAFSPQFYDIAKNAFDQGWIDVYPQENKQGGAFSHSATSDAHPFVLLNHTNKRRDLFTLAHELGHTIHQKLSYNVSYLNQNTPLTTAETASVFAEMLVFDFIKDKLKKEELLSLYANKIEDIFATFYRQINFTCFERRLHAQENELSTEEINKIWMEESQKMFQDSVKLTKNYASWWSYIPHFIHSPFYCYAYAYAQLLVLALYGLYKSKKCENFKELYIKMLSLGGSVSPKELVGMFGFDIEDENFWEIGIKEIQKLINEFMELQSEGHHHHHH	soluble
MSLTHTSDKHVTDEELELVTRGKADGIYMKAPNGSPTSLNERQWVQVRTRAFKNWFGDWENVPEAASRIPDDKYGNEQWTEEGYVYDLYVNSRNPFDPKDGQAVKKILQSLGSEIPVLSFYGGKGGTVSPEKALELASSKRNCWMLTETPEFLSKVREAGYDGLVGYDEGVKYIAVMSPGQLKDAYENTGAFSTSNDDIRFRQVYHGSPASLGHFDHAFTGTGEGAQAYGWGTYVTEVKGIARKYAAIGIKRGNHITYDGEPLSPVLDNEYYFDEVWRIWKRQILSSTDVDSLKRNISSVYMDGRTASAYSGRRKAFERQKQELLSDIDAGRIRIEPPRHLYTVEIPEDNGMNYLYWDRPVSAEQQGKIFLQLRKERFFFPEATAEFWSGRSHVWNSGKEFYGFLDYMFMNPDRDTDSQRLASGFLSRAGFTGIDYPAECSTGGRADGARNYVIFSEADLKITAHERFRFIGEKGASRLDRSEGASLRLENLAVAREMEKSGKDAGTIKAATGWERGADSKWRYETADFEYHPAGDLGYSRLLEKQSWHGELENLLDRQIEGETLSEAEWKRFEKLTELAAGLKEQDALRERIYLDDYVKDDELFQAYPEMKRTRLEFVDLPSADYCGGYLHPDNRIVINISRTDDVRSVLAHEIQHAIQTMEGFARGSNPGEFKNTVENVILDIVRATDGRILEGGGFDNTPKGIFAALDRKVPYGTILRHYDYPLSLVAEKYGYENIFDLVNDIGRFKSGIQEYRSTAGEVEARNVESRLDFTSAQRRNTLAVSTEDIARNGQIFLSRDVRMDELARHVSFLAGKLHIPVEVIRHADEVGSPDIRGLLSCGKDIRGWYDIPSQRVCLYLPHVRGKADVERTLLHEGVAHYGLRKLAGHKHMDAFLDDIFNGCGEKVRDEILRMAAADRTDIRVATEEYLARMAEDGTDQSLWDRIVTAFRNLLRKLGFCLEIGTRELRGILAASRKNLIGIAEPTVIQTARGDLELSCGYGRAVLRRQGVETDVTSLLERMRKAGISPASLGQEDWKAVFNGGIILPGGRKLMAVREPAGYGMRISGVSPGSTREGHHHHHH	soluble
MGSSHHHHHHSSGRENLYFQGMVDADGIYYLGPEGSFTHEAASLFKGKDLKAESTISLVFKRVYERESSIGIVPIENSLEGPVNETLDNLYNYDNIYVIGEIEKKIELVLAARSDNLSQIKRIYSHPHAFNEAREKLKELGFNEYIPVESTSKAAKIVSQDSEAAAICSNFAAKLYNLKVLITISSHNNYTRFIVLSKEMNSNGNKSMILFTVPHKPGALYKVLQVFYEYNINISMIYSRPLKSIPWQYYFYLEYEGGISNREFIEKLVKSTSVLKIKGSFSKLNNDPGF	soluble
MIISDVLYGEFEVDQVVEELISSKSMQRLKGIHQNGASYLMNEKWNVTRFDHSVGVMLLVKKLGGSVKEQIASLLHDVSHTAFSHVIDYVFDNEDESYHEEIFSSVVKNSEIPAILAKHGYNYEDILLDDSKWTLLERSAPELCADRVDYTLRDMYTYGYISLEEVHRFLEDIIAVEGKMVVQSVEMAEWFTETYYKEVIDFFMKPMNIYGNDMLAKTLKLSLHKKVIHADDFLLEDEELISKLQQCNDPEVEALLSKVHPNVKVKEDRNDYDLHQKNKVRLIDPPLLREGKIVQSSVVSENIRQISDIAYEKAVRGMYVKVISN	not soluble
QVQLQQSGAELMKPGASVKISCKATGYTFSSFWIEWVKQRPGHGLEWIGEILPGSGGTHYNEKFKGKATFTADKSSNTAYMQLSSLTSEDSAVYYCARGHSYYFYDGDYWGQGTSVTVSSASTKGPSVFPLAPSSKSTSGGTAALGCLVKDYFPEPVTVSWNSGALTSGVHTFPAVLQSSGLYSLSSVVTVPSSSLGTQTYICNVNHKPSNTKVDKKVEPK	soluble
MAHHHHHHMQCSSLKTGCLKLLSQLPEGLQQAGRTAVSAHQRSYCPYSNFAVGAALLHDDGKVTSGCNYETCVYKGTCAEACAIVKANMDGYRTAQAVAIYGRSVLPTAAAAAADATVPPCGFCRQLLAEVADLSGNMNDFLVVLVTFDQEHARLFRLSELLPQPFGPSSIGMDVAALATGEHSRCPGTF	not soluble
ASQKVEKTVIKNETGTISISQLNKNVWVHTELGSFNGEAVPSNGLVLNTSKGLVLVDSSWDDKLTKELIEMVEKKFQKRVTDVIITHAHASRIGGIKTLKERGIKAHSTALTAELAKKNGYEEPLGDLQTVTNLKFGNMKVETFYPGKGHTEDNIVVWLPQYNILVGGCLVKSTSAKDLGNVADAYVNEWSTSIENVLKRYRNINAVVPGHGEVGDKGLLLHTLDLLK	soluble
MKKIVTATIATAGLATIAFAGHDAQAAEQNNNGYNSNDAQSYSYTYTIDAQGNYHYTWTGNWNPSQLTQNNTYYYNNYNTYSYNNASYNNYYNHSYQYNNYTNNSQTATNNYYTGGSGASYSTTSNNVHVTTTAAPSSNGRSISNGYASGSNLYTSGQCTYYVFDRVGGKIGSTWGNASNWANAAASSGYTVNNTPKVGAIMQTTQGYYGHVAYVEGVNSNGSVRVSEMNYGHGAGVVTSRTISANQAGSYNFIHLEHHHHHH	not soluble
MGSDKIHHHHHHMERAGLAALEDALRNGLSEPFCKAIETIGQSNGRLIITGVGKSGHIGAKLAATFASTGTPAFFVHAAEANHGDLGMIGGDDVVLAISKGGESAELRSIINYSRRFSIPLIALTCSENSSLARASDIVLLVPNEQEACPLGLAPTTSTLMQLALGDALAVALLEARNFTAGDFKVFHPGGKLGASLTLVSDIMHTGDRVPLVNKGTAMPEAVGVLSRKHFGCVGILDEDGRLCGIVTEGDMARNLSRNLAELVVDDIMTRSPKTVKKSVLATSALATLEKFHIGALIVVDDDNRPIGLVHFHDLLRIGVA	not soluble
MHHHHHHSSGRENLYFQGTYNISVVGLSGTEKEKGQCGIGKSCLCNRFVRPSADEFHLDHTSVLSTSDFGGRVVNNDHFLYWGEVSRSLEDCVECKMHIVEQTEFIDDQTFQPHRSTALQPYIKRAAATKLASAEKLMYFCTDQLGLEQDFEQKQMPDGKLLVDGFLLGIDVSRGMNRNFDDQLKFVSNLYNQLAKTKKPIVVVLTKCDEGVERYIRDAHTFALSKKNLQVVETSARSNVNVDLAFSTLVQLIDK	soluble
MGSDKIHHHHHHMFMVKITILSPEGRSCSVWSLKNEIEKLGAKCDIFLLSSPENLMSHDFKLETDLIHSRCGIGDYFDRLTLYSWQFINALEVEGCRFINPIKTLYLTSDKFKCIKLLAKNKIKTPKTALIRDYEDAVKFIEKYNLRFPVVIKNSFSKCGLKVFMARNYDELKQLTKNAIWEGKLIQEFIDFKENDLYRDMRILVVDGEVVGGYRRVSRDFRTNLYLGNVVEKLNIDEELEELALKCADLSEAVILGVDILPTKDNYYVIELNSSPGTKGFRDIGINADKKIAEALVRYAKS	not soluble
SNAMRNKNMSTIYQTSATASAGRNGVVSTEDKLLELNLSYPKEMGGSGTATNPEQLFAVGYAACFSNAILHVAREAKVALKEAPVTATVGIGPNGQGGFALSVALAAHIALEDEQARQLVTVAHQVCPYSNAVRGNIDVQVSVNGLAL	soluble
MFLFSELCRRLSPDAVRIVSDHRIVHLLTDSRTLSEPATTLFFALRTTSGDGHLYIRDLYDRGVRSFVISDPSKDLMEKMPQANWMRVAHPLDALQRIAALRRSMFDIPVIGITGSNGKTIVKEFLYQLLRKDYRIVRSPRSYNSQIGVPLSVWQMAEEHTLGIFEAGISQMGEMERLE	not soluble
MGSDKIHHHHHHMSNRIKNIHYGTQRQQLKNLTKKEYQALREMCFLAKNLYNVGTYNVRQHYFNQGEHLNYEANYHVCKENENYKLLNSNIAQQILKEVDSSFRSFFGLIKLAKEGKYDFRGIKSPKYLDKEGFFSIIIGQIRIKEDGILNVPMSPAFKKLYGKVSIKVPQNILEKKIKEIRIIPKHKARFFEIQYCYEIPKSEEVSNQKNALAIDLGLENLCTCVTNLGDSFIIDGKRLKSVNQWANKQNDKIEALKLKKNITAITRKQFKVWNKRNNQVKDYVNKTCFYIIDYCVKNNIGNLIVGYNAKLEKSDNMERKIYRNFIRIPFGEIKGKLEYLCKIKNINFIRQEESYTSKSDFFADDFLPDINVDNVKKYDFKGERITRGQYKSSVGIIINADVNASLNILKKSQVVNLSNLQNNPQILKQPQRVRIS	not soluble
MSTINQKLSDNFREAWQKQNLEVNLEEVIEKWELTKYVKDNFICPEVNISTLPSYSFVLKFMFKLKKPYISLDENDFYIIDNPLRKDKVLNLPFVAPSSWKGSLRNSLWQLNYDYENDKIRRIFGNERSPNSEDIVLRMGRLYFFPTFFSKKSLEIINPHNRESRVGTVPILMESVPQDTTGYFTLIYVPFDLIGCEENEIKKQVACDIQLISKGLKSMFTYYGFGAKTSSGYGTSYEDITDGTITLRVKGIEVSLKDIDEVKPPAEGYSKYLNEDGSVKEEFKGSGKYGLLSDKEYYKIKNQLEGSRNEYRDFRQWYGLNGEKWQKHLNSFKYPKPEWPTWNFGNFFQLIEVSKNIATSLELSGAHNECMAGDPLEHHHHHH	not soluble
MGHHHHHHSHMAICQFFLQGRCRFGDRCWNEHPGARGAGGGRQQPQQQPSGNNRRGWNTTSQRYSNVIQPSSFSKSTPWGGSRDQEKPYFSSFDSGASTNRKEGFGLSENPFASLSPDEQKDEKKLLEGIVKDMEVWESSGQWMFSVYSPVKKKPNISGFTDISPEELRLEYHNFLTSNNLQSYLNSVQRLINQWRNRVNELKSLNISTKVALKCLWKIYTHLSPKIYGPDCAL	not soluble
MTIRMIPHPIFSSPTKRRREKPDPPARAGAAQPSGPARMTPQQQTEWQQRLIALLESQPPDDDGAHDLSHLHRVWAVARTLLAHYPDADSIVVMAGSYLHDLVNLPKNHPQRQLASHWSAERARQLLADSGLTEAQLDNLAHAIEAHSYSAAIPPRTLEARIVQDADRMDALGPVGLARMFYVSGRMGRALAHPLDPLAEHRGRDDQAWAIDHIDVKLAKLPGMMQTEAGRAMAERKLEWLFHFRDEFCRDWMARLEHHHHHH	soluble
MNTASLVRSLSRVALRSSQVVRMAAPRHFSQSAKVLSVTPELQQALNREIEAEQQLSSDNLQGAVAPTFAGFQVTNKDAEVRLTKKNGSEDILVVFNVNHSVDMDEGFDDEPSQAVAPVPVAMPPFTVEITKGDQRLCFHLELVPVDDQPDEYDFRVEEFYVAPSAKNGNEDVPSEVYASSGKYIDPDLHDLLFVRYLEERGLDARFCKTLVAYATHYEHSQYVGLLDKIKKFISK	not soluble
MGHHHHHHSHTKSARVKGLSFHPKRPWILTSLHNGVIQLWDYRMCTLIDKFDEHDGPVRGIDFHKQQPLFVSGGDDYKIKVWNYKLRRCLFTLLGHLDYIRTTFFHHEYPWILSASDDQTIRVWNWQSRTCVCVLTGHNHYVMCAQFHPTEDLVVSASLDQTVRVWDISGLRKKNLSPGAVESDVRGITGVDLFGTTDAVVKHVLEGHDRGVNWAAFHPTMPLIVSGADDRQVKIWRMNESKAWEVDTCRGHYNNVSCAVFHPRQELILSNSEDKSIRVWDMSKRTG	soluble

Reference: the DeepSol protein solubility set
